Test [1] concerns the target T1, anti-idiotypic antibody clone 32869.
T1 construct: Human IgG1 from HEK293, selected from the HuCAL library
As to the kind of experiment: MSD electrochemiluminescence bridging ELISA: anti-idiotypic antibody 32869 coated on the plate, clone 31282 spiked in human serum, detection with Sulfo-TAG 32869. An excerpt: The ELISA assay is based on the Meso Scale Discovery (MSD) Platform using electrochemiluminescence detection technology. […] A voltage is applied to the plate electrodes, causing the bound Sulfo-TAG to emit light via electrochemical stimulation.

In test [2] the target is T2, human TIGIT on cells (Jurkat-hTIGIT, human primary T cells) (human, UniProt Q495A1 22-244).
T2 construct: whole, on cells; The cell type is named in each row's assay; also called membrane expressed human TIGIT
T2 sequence (looked up): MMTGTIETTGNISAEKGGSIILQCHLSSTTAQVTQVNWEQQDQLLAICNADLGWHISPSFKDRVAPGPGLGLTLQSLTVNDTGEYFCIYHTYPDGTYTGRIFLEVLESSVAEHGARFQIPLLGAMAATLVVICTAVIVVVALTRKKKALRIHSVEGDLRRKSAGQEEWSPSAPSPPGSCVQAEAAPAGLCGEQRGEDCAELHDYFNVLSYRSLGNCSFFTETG
As to the kind of experiment: flow cytometry on Jurkat-hTIGIT, no 31282. In general terms: Flow cytometry measures light scatter and fluorescence of single cells or particles in a stream.

This is an account of results in patent US20220306733A1 (ITEOS BELGUIM, published 2022).

T1 sequence (VH, as listed by the source, chain 1 of 2): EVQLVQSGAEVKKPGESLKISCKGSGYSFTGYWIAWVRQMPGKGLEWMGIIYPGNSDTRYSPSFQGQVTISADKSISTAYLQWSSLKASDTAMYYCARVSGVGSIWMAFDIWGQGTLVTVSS
T1 sequence (VL, as listed by the source, chain 2 of 2): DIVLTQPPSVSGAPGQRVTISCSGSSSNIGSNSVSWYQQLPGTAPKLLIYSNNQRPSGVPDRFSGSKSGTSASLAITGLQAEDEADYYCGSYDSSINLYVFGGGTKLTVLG

B1: anti-TIGIT antibody clone 31282 (antibody, V domains shown)
VH: QVQLVQSGAEVKKPGASVKVSCKASGYTFTSYYMHWVRQAPGQGLEWMGVIGPSGASTSYAQKFQGRVTLTRDTSTSTVYMELSSLRSEDTAVYYCARDHSDYWSGIMEVWGQGTTVTVSS
VL: EIVLTQSPGTLSLSPGERATLSCRASQSVRSSYLAWYQQKPGQAPRLLIYGASSRATGIPDRFSGSGSGTDFTLTISRLEPEDFAVYYCQQYFSPPWTFGGGTKVEIK
Take B1: the binding result in test [1] is “binds”.

B2: anti-TIGIT antibody clone 32959 (antibody, human IgG1, V domains shown)
VH: QVQLVQSGAEVKKPGSSVKVSCKASGGTFSSYLISWVRQAPGQGLEWMGGIYPIFATANYAQKFQGRVTITADESTSTAYMELSSLRSEDTAVYYCAREAQSYRVPFDIWGQGTMVTVSS
VL: EIVMTQSPATLSVSPGERATLSCRASQSVSSNLAWYQQKPGQAPRLLIYGASTRATGIPARFSGSGSGTEFTLTISSLQSEDFAVYYCQQYAIWPPFTFGGGTKVEIK
modifications: AF647 dye coupled to the antibody in Examples 24 and 36; the site is not stated and the letters do not carry it.
notes: human IgG1 from HEK cells
In the case of B2, in test [2], the “Cell binding Jurkat Human TIGIT FON (Fold Over Negative)” value was found to be 588 fold over negative.
